What was measured:
[1] = target: cell surface receptors in membranes prepared from SH-SY5Y cells; assay: radioligand saturation binding on SH-SY5Y cell membranes; lower end of range
[2] = target: cell surface receptors in membranes prepared from SH-SY5Y cells; assay: radioligand saturation binding on SH-SY5Y cell membranes, filtration, nonlinear regression; lower end of range
[3] = target: cell surface receptors in membranes prepared from SH-SY5Y cells; assay: radioligand saturation binding on SH-SY5Y cell membranes; upper end of printed range
[4] = target: cell surface receptors in membranes prepared from SH-SY5Y cells; assay: radioligand saturation binding on SH-SY5Y cell membranes, filtration, nonlinear regression; upper end of printed range

Bmax (fmol/mg protein) [1]: 88
Kd [2]: 0.087 nM
Bmax (fmol/mg protein) [3]: 104
Kd [4]: 0.149 nM
Substance: [3H][Dmt1]DALDA (2',6'-Dmt-D-Arg-Phe-Lys-NH2, tritiated) (peptide)

— patent publication US20200299415A1
